Laboratory results from the supplement of paper PMC9170038.

Assays:
Conditions in all cases: FMN input: 0 or 200 uM; Eterna round: R93 (includes R88 designs)
MS2 coat protein [1] = experiment: apparent KD of MS2 coat protein, switch OFF state (with FMN for OFF switches, without FMN for ON switches); designed switch direction (-1 OFF switch, 1 ON switch): 1; higher = weaker reporter binding
Method in brief: (§1)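 Apparent KD per design is the median of normalised cluster binding-curve fits. Designed RNA switches transcribed on-chip from Illumina sequencing clusters were titrated with SNAP-549-labelled MS2 coat protein in twofold steps from 0.7 or 1.5 nM to 3 µM, with 0.8–1.5 h down to 10–20 min per step. Buffer: 100 mM Tris-HCl pH 7.5, 80 mM KCl, 4 mM MgCl2, without or with constant ligand.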

MS2 coat protein [2] = experiment: apparent KD of MS2 coat protein, switch ON state; designed switch direction (-1 OFF switch, 1 ON switch): 1; higher = weaker reporter binding
Method in brief: as §1

MS2 coat protein [3] = experiment: apparent KD of MS2 coat protein, switch ON state; designed switch direction (-1 OFF switch, 1 ON switch): -1; higher = weaker reporter binding
Method in brief: as §1

MS2 coat protein [4] = experiment: apparent KD of MS2 coat protein, switch OFF state (with FMN for OFF switches, without FMN for ON switches); designed switch direction (-1 OFF switch, 1 ON switch): -1; higher = weaker reporter binding
Method in brief: as §1

Sequence | apparent KD of MS2 coat protein (MS2 coat protein [1]) [nM] | apparent KD of MS2 coat protein (MS2 coat protein [2]) [nM] | apparent KD of MS2 coat protein (MS2 coat protein [3]) [nM] | apparent KD of MS2 coat protein (MS2 coat protein [4]) [nM]
AGAAAGAAAAGAGAGGAUAUCUAAAAGAAAACAUGAGGAUCACCCAUGUAAAAGAAAAGAAAAUGGGAGAAGGCUCAUGAGAAAG [JL Skelter Mod 7 In the Red] | 59.7 | 101 |  | 
AAUAUAUUAAGUGAGGAUAUCAAAGAAAAAACAUGAGGAUCACCCAUGUGGGAAACCUGGUCGGGUGAGAAGGCACUUAAUAUAU [Samwise Clockwise 28 - Jieux - Same State 2] | 314 | 31.3 |  | 
GGAAGACAUGAGGAUCACCCAUGUGGGAAUAUGGGAGGAUAUACAAAGACGAGAGUCAGAGUAGAAGGCCUAGGAC [salish99-ss1-102] | 105 | 32.8 |  | 
GACUAACAUGAGGAUCACCCAUGUAUUCAAACAUGAGGAUAUAUAACACAUCAUCGACGGAUAGAAGGCAUAGAUA [JR_SS001_Sub1207] | 71.7 | 81.1 |  | 
AGGAAACAUGAGGAUCACCCAUGUAAAAAAUAGGGAGGAUAUACUAGAAGAAACAAAAUAGUAGAAGGCUCAAAAA [75%, Ex sub1, 25] | 30 | 12.9 |  | 
AGGAGACAUGAGGAUCACCCAUGUGCACGUGGAGGAGGAUAUGCUAGUAGAAGAUAGAAAGCAGAAGGCCUAAGAA [mod of top voted: #2] | 37.2 | 44.3 |  | 
GGAAGGAAGAGAGAGGAUAUCCAAAGGAAAACAUGAGGAUCACCCAUGUAAAAGGUAGGAAAUUGGGAGAAGGCUCAAAAGAGAG [salish99-ss2-036] | 14 | 18.6 |  | 
AUAGUACAUGAGGAUCACCCAUGUCAGGAUAUUCGAUAUGAAAAAAAAAAAAAGUUAAGGAGAAGGGACUAUAA [EX1 Malc#13] |  |  | 26.1 | 26.1
AAAAAACAUGAGGAUCACCCAUGUAAGGAUAUGCUCGGGCGAAAAAGCAAAAAAAAGAGCAGAAGGUACAAAAA [66%, Wbt, 42] |  |  | 20.5 | 38.7
AGCUAGUCAGGAUAUACGAAAAUGAACGAAGCUGAGAAGGGACAUGAGGAUCACCCAUGUAGAAGGGACUAGCA [Diamond 34] |  |  | 47.7 | 137
GGGUCACAUGAGGAUCACCCAUGUAAGGAUAUGCUAGGGAUGGAAACCAGGCCGCAACGCAGAAGGUACUAAAG [Janelle Amethyst 18 Mod 13 - Jieux - Exclusion 1] |  |  | 50.7 | 64.5
GGAUGCGAAGGAUAUACAUGAGGAUCACCCAUGUGAGAGAAAAAAGUGAGAAAGAAAAGUAGAAGGUCGUGUCG [salish99-ex3-93] |  |  | 28.8 | 97.2
CUCUAGUUAGGAUAUGCAAGAAAAGAAAAGAAAGAAAAGAAGCAGAAGGAACAUGAGGAUCACCCAUGUAAGAA [EteRNA is fun!] |  |  | 49.4 | 62.5
CGAAUACAUGAGGAUCACCCAUGUUAGGAUAUGCGAAAACAAAACAAAACAAACAAAAGUAGAAGGAGCAACAA [EXC - 1] |  |  | 18.1 | 20
AAUACACAUGAGGAUCACCCAUGUAAGGAUAUCGAAAAAAAAAUAAACAAAAAACAAACGAGAAGGUACAAAAA [Exclusion 1 design 3] |  |  | 33.2 | 33.6
AACAGGUCAGGAUAUGUGGAAAAAAUAAAAAAAAUAAAAACACAGAAGGGACAUGAGGAUCACCCAUGUAAACA [May 23] |  |  | 47.2 | 60.4
AAAAAGGGAGGAUAUACAGGAGGUCAAAAAAAAAAAAAAAAACAUGAGGAUCACCCAUGUAGAAGGCUUAAAAA [Ecls2-III] |  |  | 26.7 | 27.3
AACCUGCUAGGAUAUACAGCAGGGAUUCGAAAACCCACGAAACAUGAGGAUCACCCAUGUAGAAGGAGUAGGGA [Teainis] |  |  | 20.3 | 16.1
AAAAAACAUGAGGAUCACCCAUGUAAGGAUAUGCUGGUGCGAAAGCACAAAAAAAACAGCAGAAGGUACAAAAA [66%, Wbt, 37] |  |  | 17.4 | 27.5
